Reference: paper PMC9842066, “Implantable device actuated by manual button clicks for noninvasive self‐drug administration” (Bioengineering & Translational Medicine, 2022)

Legend:
[1] = Stability assessment of exenatide and insulin in the BCD
From the text: Supplementary Figure 5. […] To obtain the CD spectra, the solution was placed in a 1-mm path length cuvette (Chirascan plus, Applied Photophysics, Surrey, UK) and scanned over range of 200-260 nm.

[2] = test system: STZ-induced diabetic rats; test: PD studies on insulin and glucagon delivery (plasma glucose); type: in vivo, Wistar rats; details: hyperglycemic STZ-induced Type 1 diabetic rats (>400 mg dl^−1); 1-U insulin by SC injection or BCD; n = 4 per group
Method: For this experiment, we employed a Type 1 diabetic animal model, streptozotocin (STZ)‐induced diabetic rats.[26], [28] To induce this animal model, Wistar rats were fasted overnight, and then intraperitoneally injected with a STZ solution (60 mg kg^−1) prepared in 0.09 M citrate buffered saline (pH 4.0) to destroy the beta‐cells of the pancreas. Three days after the STZ injection, the plasma glucose level was measured with a glucometer, and the animals with a plasma glucose level > 400 mg dl^−1 were screened for use. Among them, we employed two distinct animal models of hyperglycemia and hypoglycemia, respectively. For a hyperglycemic condition, the animals were used as they were with a blood glucose level of >400 mg dl^−1.[28], [29] For a hypoglycemic condition, the animals were fasted overnight and the ones with a plasma glucose level of <72 mg dl^−1 were screened for use.[30] The hyperglycemic animals were treated with 1‐U insulin by an SC injection or implanted BCD: Inj‐Insulin (n = 4) and BCD‐Insulin (n = 4), respectively. For this, we utilized a commercially available insulin solution (100 U ml^−1; NovoRapid, Novo Nordisk). […] After administration, the plasma glucose level was measured with a glucometer at scheduled times.

insulin: commercially available insulin solution (100 U ml^−1; NovoRapid, Novo Nordisk)
Stability during 4-week period in the BCD ([1]; 4 weeks, Figure S5): well retained
Drop of blood glucose level with stored versus fresh insulin ([1]; insulin stored in BCD at 37 °C for 28 days, injected subcutaneously to diabetic animals, n = 3): similar
Drug content (HPLC) and far-UV CD spectra after incubation in the BCD ([1]; loaded BCDs stored at 37 °C for 28 days, versus fresh drug solution, n = 3, HPLC and CD 200-260 nm): did not vary
Change in plasma glucose level after insulin [2]: decrease
